Laboratory results from patent publication US20230099801A1, “RESTORATION OF T CELL ACTIVITY VIA THE CD39/CD73 AXIS” (INNATE PHARMA, priority 2017, published 2023).
Entries after “also recorded” stand apart in the source; their conditions may differ.

Assays:
[1] = molecular target: T1, soluble recombinant human CD39 protein (Homo sapiens, UniProt P49961); assay: Inhibition of the enzymatic (ATPase) activity of soluble CD39, Cell Titer Glo; format: biochemical
T1 construct: made in house; host or cells: CHO cells
T1 sequence (P49961 with tags, fused parts or gaps): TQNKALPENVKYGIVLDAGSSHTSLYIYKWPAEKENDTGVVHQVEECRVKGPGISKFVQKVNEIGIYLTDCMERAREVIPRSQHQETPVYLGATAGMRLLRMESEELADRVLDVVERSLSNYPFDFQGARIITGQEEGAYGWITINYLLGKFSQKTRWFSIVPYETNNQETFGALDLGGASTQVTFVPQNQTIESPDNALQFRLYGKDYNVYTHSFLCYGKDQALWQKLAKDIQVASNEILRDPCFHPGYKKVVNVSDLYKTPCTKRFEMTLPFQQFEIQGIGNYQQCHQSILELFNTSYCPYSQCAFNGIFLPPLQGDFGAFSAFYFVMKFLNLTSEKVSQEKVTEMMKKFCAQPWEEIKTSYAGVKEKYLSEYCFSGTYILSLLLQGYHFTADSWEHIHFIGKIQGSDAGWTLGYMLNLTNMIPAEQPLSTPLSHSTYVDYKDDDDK
Experimental: The ability of an antibody to inhibit soluble recombinant human CD39 protein can be tested by detecting ATP after incubating test antibody with soluble CD39 protein (e.g., the CD39 protein having the amino acid sequence of SEQ ID NO: 5, as produced in Example 1, optionally further comprising a purification tag or other functional or non-functional non-CD39-derived amino acid sequence). See, e.g., Example 1. Briefly, ATP can be quantified using the Cell Titer Glo™ (Promega), in an assay in which dose ranges of test antibody are incubated with soluble recombinant human CD39 protein described in Example 1, for 1 hour at 37° C. 20 μM ATP are added to the plates for 30 additional minutes at 37° C. before addition of CTG reagent. Emitted light is quantified using an Enspire™ luminometer after a short incubation period of 5 min in the dark.
The inhibition by antibodies of the enzymatic activity of soluble CD39 protein produced was evaluated using Cell Titer Glo™ (Promega, reference G7571) that allows assessment of ATP hydrolysis through use of a reagent that generates a luminescent signal proportional to the amount of ATP present. In this way, inhibition of the soluble-CD39-mediated ATP hydrolysis can be assessed. Briefly, dose ranges of anti-CD39 antibodies from 100 μg/ml to 6×10^−3 μg/ml were incubated with 400 ng/ml of soluble recombinant human CD39 protein having the amino acid sequence described in the Methods section (SEQ ID NO: 54), for 1h at 37° C. 20 μM ATP was added to the plates for 30 additional minutes at 37° C. before addition of CTG (Cell Titer Glo) reagent. Emitted light was quantified using an Enspire™ luminometer after a short incubation period of 5 min in the dark. Anti-CD39 antibody efficacy was determined by comparing emitted light in presence of antibody with ATP alone (maximal light emission) and ATP together with soluble CD39 protein (minimal light emission).

[2] = molecular target: T2, Human CD39-L3 (NTPDase3, ENTPD3) (Homo sapiens, UniProt O75355); assay: ELISA titration on CD39-L3; format: binding
T2 sequence (O75355 1-529): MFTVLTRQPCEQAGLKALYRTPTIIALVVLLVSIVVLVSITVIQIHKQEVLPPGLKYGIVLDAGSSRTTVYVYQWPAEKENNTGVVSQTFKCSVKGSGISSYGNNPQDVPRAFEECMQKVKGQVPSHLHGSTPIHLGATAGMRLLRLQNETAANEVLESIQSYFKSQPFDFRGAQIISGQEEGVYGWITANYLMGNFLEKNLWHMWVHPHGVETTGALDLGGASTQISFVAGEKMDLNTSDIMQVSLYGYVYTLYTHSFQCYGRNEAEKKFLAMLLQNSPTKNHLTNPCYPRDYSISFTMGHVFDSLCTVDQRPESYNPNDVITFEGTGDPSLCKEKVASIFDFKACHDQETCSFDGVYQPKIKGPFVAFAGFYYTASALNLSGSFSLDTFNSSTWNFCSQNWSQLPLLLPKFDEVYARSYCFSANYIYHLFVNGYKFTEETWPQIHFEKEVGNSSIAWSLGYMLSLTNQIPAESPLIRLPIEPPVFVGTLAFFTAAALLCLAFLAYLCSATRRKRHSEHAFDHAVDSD
Experimental: Wells were washed in TBS Tween 20, and further saturated 2H at RT in TBS Blocking buffer. Dose range concentration of primary antibody was incubated in TBS blocking buffer for 2h at RT. Wells were washed in TBS Tween 20. […] Optical density was measured on Enspire™ at OD=450.

[3] = tested on: cynomolgus CD39 (CHO-cyCD39); assay: Inhibition of cellular CD39 ATPase activity in CHO-cyCD39 cells; format: cell-based, cynomolgus (Macaca fascicularis)
Experimental: The inhibition of the CD39 enzymatic activity in CD39-expressing cells by antibodies was evaluated using Cell Titer Glo™ (Promega, reference G7571) that allows assessment of ATP hydrolysis through use of a reagent that generates a luminescent signal proportional to the amount of ATP present. The assay was thus designed to permit assessment of the inhibition of ATP hydrolyzed by CD39 in the cell culture supernatant. Briefly, 5×10^4 Ramos human lymphoma cells, 5×10^3 human CD39-, cynomolgus CD39—and mouse CD39-expressing CHO cells, were incubated 1 hour at 37° C. with anti-CD39 antibodies from 30 μg/ml to 5×10^−4 μg/ml. Cells were then incubated with 20 μM ATP for 1 additional hour at 37° C. Plates were centrifuged for 2 min at 400 g and 50 μl cell supernatant are transferred in a luminescence microplate (white wells). 50 μl CellTiter-Glo® Reagent (CTG) was added to the supernatant and emitted light was quantified after a 5 min incubation in the dark using a Enspire™ luminometer. Anti-CD39 antibody efficacy was determined by comparing emitted light in presence of antibody with ATP alone (maximal light emission) and ATP together with cells (minimal light emission).

maximum inhibition achieved, soluble CD39 protein [1]: 74.9% | inhibition of ATPase activity of soluble CD39 when antibody is spiked into negative hybridoma supernatants ([1]; added to hybridoma supernatant): did not restore | inhibition of ATPase activity of soluble CD39 after purification from the negative supernatant ([1]; purified with Protein A coated beads): again able to inhibit | binding to CD39-L3 in ELISA [2]: not to any of the human isoforms
B1: I-394: anti-CD39 antibody, VH SEQ ID NO: 6, VL SEQ ID NO: 7; heavy/light chains SEQ ID NOS: 52 and 53 (antibody)
heavy: EVQLQQSGPELVKPGASVKMSCKASGYTFTDYNMHWVKQSHGRTLEWIGYIVPLNGGSTFNQKFKGRATLTVNTSSRTAYMELRSLTSEDSAAYYCARGGTRFAYWGQGTLVTVSAASTKGPSVFPLAPSSKSTSGGTAALGCLVKDYFPEPVTVSWNSGALTSGVHTFPAVLQSSGLYSLSSVVTVPSSSLGTQTYICNVNHKPSNTKVDKRVEPKSCDKTHTCPPCPAPEAEGAPSVFLFPPKPKDTLMISRTPEVTCVVVDVSHEDPEVKFNWYVDGVEVHNAKTKPREEQYNSTYRVVSVLTVLHQDWLNGKEYKCKVSNKALPSSIEKTISKAKGQPREPQVYTLPPSREEMTKNQVSLTCLVKGFYPSDIAVEWESNGQPENNYKTTPPVLDSDGSFFLYSKLTVDKSRWQQGNVFSCSVMHEALHNHYTQKSLSLSPGK
light: DIVLTQSPASLAVSLGQRATISCRASESVDNFGVSFMYWFQQKPGQPPNLLIYGASNQGSGVPARFRGSGSGTDFSLNIHPMEADDTAMYFCQQTKEVPYTFGGGTKLEIKRTVAAPSVFIFPPSDEQLKSGTASVVCLLNNFYPREAKVQWKVDNALQSGNSQESVTEQDSKDSTYSLSSTLTLSKADYEKHKVYACEVTHQGLSSPVTKSFNRGEC
modifications: Chimeric homo sapiens mus musculus
inhibition of the enzymatic (ATPase) activity of soluble CD39 protein ([1]; 400 ng/ml soluble CD39, 20 μM ATP): strong inhibition; also recorded: inhibits; also recorded: highly potent | blocking CD39 enzymatic activity in cells expressing cynomolgus CD39 [3]: blocks; also recorded: highly potent
